The target in experiment [1] is coagulation factor II thrombin receptor/protease activated receptor 1 (F2R/PAR1) (human (endogenous in ES-2)) (UniProt P25116).
Experiment [2] shares this target. This is another data set of the same source.

Where no end group is shown, it is not given here.

Chain of UniProt P25116 (P25116 42-425): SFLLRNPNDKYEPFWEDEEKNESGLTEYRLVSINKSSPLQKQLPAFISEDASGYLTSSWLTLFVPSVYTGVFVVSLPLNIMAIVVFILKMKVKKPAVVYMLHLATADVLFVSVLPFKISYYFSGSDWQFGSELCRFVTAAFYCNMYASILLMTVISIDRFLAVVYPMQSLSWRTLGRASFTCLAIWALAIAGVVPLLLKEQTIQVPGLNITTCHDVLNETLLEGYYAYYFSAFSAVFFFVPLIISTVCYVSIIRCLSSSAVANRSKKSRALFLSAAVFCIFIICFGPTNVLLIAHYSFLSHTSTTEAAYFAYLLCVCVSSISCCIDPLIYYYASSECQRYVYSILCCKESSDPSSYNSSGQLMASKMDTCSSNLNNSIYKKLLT

On to TFLLRGSGSGSC(DSPE‑PEG2000‑maleimide) (also: on doxorubicin-loaded lipid nanoparticles) [… conjugated to DSPE-PEG-maleimide, on doxorubicin-loaded lipid nanoparticles (LNP-Peptide-DOX)], for which the cellular uptake: DOX fluorescence (MFI per cell) of ES-2 cells by flow cytometry after 1 h at 37 °C, about 86 µM drug; LNP-DOX without peptide approximately 2000 in experiment [1] was determined as 6000 MFI. In experiment [2], this molecule gave a cytotoxicity on ES-2 cells, MTT assay, 24 h; IC50 as DOX concentration; LNP-DOX without peptide 10.16 µM, free DOX 0.6 µM of 1.26 µM.

(Values after publication PMC12835398.)
